One data set deals with 4T1 cells. Put plainly: CCK‐8 viability of 4T1 cells with or without US. The data set is classed as cell-based, murine. The conditions noted are these: for survival of 4T1 cells: without US irradiation, various concentrations. Here is the method:
To determine the antitumor efficacy in vitro, the 4T1 cells were divided into the following 6 groups: i) control, ii) control + US, iii) BP + US, iv) PAHN‐3 + US, v) PAHN‐2 + US, and vi) PAHN‐1 + US. Then, the medium were replaced with the fresh medium containing corresponding formulations at different concentrations (30, 60, 120 µM). After 4 h of treatment, the cells were rinsed with PBS and then treated by US at an intensity of 3 W cm^−2 for 4 min. After that, the culture medium was replaced by a fresh serum‐free medium for another 4 h incubation. Finally, a standard CCK‐8 assay was used to evaluate the viability of the cells. The therapeutic effect was also detected by cellular apoptosis assay. In brief, the 4T1 cells were divided into the 6 groups as described above. Next, cells were treated with either BP, PAHN‐3, PAHN‐2, PAHN‐1 at a concentration of 120 µM, or PBS, followed by US irradiation. Finally, these cells were costained by a dye solution of calcein AM (2 µM) and PI (2 µM) or collected for apoptosis analysis using flow cytometry.

Another data set relates to 4T1 tumor‐bearing mice. Put plainly: In vivo and ex vivo fluorescence imaging / biodistribution. The conditions noted are these: DIR‐labelled, i.v. 2.4 µmol kg^−1, n = 3; for ex vivo distribution in tumor and major organs: 48 h postinjection. Here is the method:
For the fluorescence imaging and biodistribution assessment in vivo, DIR‐labelled nanosystem was prepared. Briefly, 2 µL of DIR stock solution (2 mM) was added to 1 mL of the PAHN. After stirring for 12 h, the DIR‐labelled nanosystem was finally obtained after dialyzing against deionized water using a dialysis bag (MWCO: 3500 Da) overnight to remove excess DIR. 4T1 tumor‐bearing mice (n = 3) were intravenously injected with DIR‐labelled (Ex/Em = 748 nm/780 nm) PAHN‐1 or PAHN‐2 at a dose of 2.4 µmol kg^−1. Fluorescence images were acquired at preinjection, and 0, 0.5, 1, 2, 6, 24 and 48 h postinjection by using a fluorescence imaging system (CRi Inc., USA). The tumor tissues and major organs were isolated and obtained for ex vivo imaging on the day of animal sacrifice. The corresponding fluorescence intensities were recorded.

Another data set concerns healthy mice. Put plainly: Biosafety of PAHN in vivo (H&E, routine blood, blood biochemistry). The conditions noted are these: i.v. 2.4 µmol kg^−1, 1, 3, 7, 14, 28 d postinjection, n = 5. The source says:
To investigate the short and long‐term biosafety of PAHN‐1 in vivo, PAHN‐1 at a dose of 2.4 µmol kg^−1 was intravenously injected into twenty five healthy mice that were sacrificed at predetermined time points (1, 3, 7, 14, and 28 d postinjection). Five healthy mice that were administrated with the saline solution served as the control group. The blood samples were then collected for biochemistry and routine blood examination. The main organs were stained with H&E.

In a further data set the test system is inoblast L929. Put plainly: CCK‐8 cytotoxicity against L929. The data set is classed as cell-based. The conditions noted are these: without US.
In another data set the test system is HUVECs. Put plainly: CCK‐8 cytotoxicity against HUVECs. The data set is classed as cell-based, human. The conditions noted are these: without US.

Data on three compounds can be found in article PMC9896067, “Peptide Supramolecular Assembly‐Instructed In Situ Self‐Aggregation for Stratified Targeting Sonodynamic Therapy Enhancement of AIE Luminogens” (Advanced Science, 2022).

Where a SMILES comes first, the peptide text is derived from it. The star is where a group is joined. X1 = O=C(c1cc(OCCCCCC(=O)*)cc(C(=O)c2ccc3ccc4cccc5ccc2c3c45)c1)c1ccc2ccc3cccc4ccc1c2c34

With `CC(C)C[C@H](NC(=O)[C@H](CCCCN)NC(=O)[C@H](C)NC(=O)[C@H](CC(C)C)NC(=O)[C@H](CCCCN)NC(=O)[C@H](CC(C)C)NC(=O)[C@@H](NC(=O)[C@H](Cc1ccccc1)NC(=O)[C@H](Cc1ccccc1)NC(=O)[C@H](Cc1ccccc1)NC(=O)[C@H](CS)NC(=O)CCCCCOc1cc(C(=O)c2ccc3ccc4cccc5ccc2c3c45)cc(C(=O)c2ccc3ccc4cccc5ccc2c3c45)c1)C(C)C)C(=O)N[C@@H](C)C(=O)N[C@@H](CCCCN)C(=O)N[C@@H](CC(=O)O)C(=O)N[C@@H](CCC(=O)O)C(=O)N[C@H](C(=O)N[C@@H](CC(=O)O)C(=O)N[C@@H](C)C(=O)N[C@@H](CCCCN)C(=O)N[C@@H](CC(=O)O)C(=O)NCC(=O)N[C@@H](C)C(=O)N[C@@H](CCC(=O)O)C(=O)N[C@@H](CO)C(=O)N[C@@H](Cc1c[nH]cn1)C(=O)N[C@@H](Cc1c[nH]cn1)C(=O)O)C(C)C` [PAHN-2] (X1-CFFFVLKLAKLAKDEVDAKDGAESHH-OH), the “survival of 4T1 cells” value with 4T1 cells (CCK‐8) is reported as “no evident change”. For the same compound, the “ex vivo distribution in tumor and major organs” value with 4T1 tumor‐bearing mice is “tended to accumulate in the liver and spleen”.

As for `CC(C)C[C@H](NC(=O)[C@H](CCCCN)NC(=O)[C@H](C)NC(=O)[C@H](CC(C)C)NC(=O)[C@H](CCCCN)NC(=O)[C@H](CC(C)C)NC(=O)[C@@H](NC(=O)[C@H](Cc1ccccc1)NC(=O)[C@H](Cc1ccccc1)NC(=O)[C@H](Cc1ccccc1)NC(=O)[C@H](CS)NC(=O)CCCCCOc1cc(C(=O)c2ccc3ccc4cccc5ccc2c3c45)cc(C(=O)c2ccc3ccc4cccc5ccc2c3c45)c1)C(C)C)C(=O)N[C@@H](C)C(=O)N[C@@H](CCCCN)C(=O)N[C@@H](CC(=O)O)C(=O)N[C@@H](CCC(=O)O)C(=O)N[C@H](C(=O)N[C@@H](CC(=O)O)C(=O)N[C@@H](C)C(=O)N[C@@H](CCCCN)C(=O)N[C@@H](CCCNC(=N)N)C(=O)NCC(=O)N[C@@H](C)C(=O)N[C@@H](CCCNC(=N)N)C(=O)N[C@@H](CO)C(=O)N[C@H](C(=O)N[C@@H](C)C(=O)O)[C@@H](C)O)C(C)C` [PAHN-1] (X1-CFFFVLKLAKLAKDEVDAKRGARSTA-OH), in the data set on healthy mice (compared to control), the “hematological indices (routine blood, blood biochemistry)” value is “negligible variations”. Moreover, in the data set on healthy mice, the “histopathology of major organs (H&E)” value is recorded as “neither significant histopathological changes nor abnormal inflammatory responses”. The cell viability entry in the data set on 4T1 cells (4T1 cells, + US 3 W cm^−2, 4 min after 4 h treatment, 30, 60, 120 µM tested, CCK‐8, n = 3) is listed as “less than 20%”. In the data set with 4T1 cells (4T1 cells, without US, concentration of BP up to 120 µM, CCK‐8), the viability of cells result was “higher than 80%”. Further, in the data set with 4T1 tumor‐bearing mice, the “ex vivo distribution in tumor and major organs” value is on record as “relatively greater tumor accumulation”; the “time of maximum fluorescence signal of the tumor region” value is 24 h. In the data set on inoblast L929, the “cytotoxicity against L929” value is on record as “negligible cytotoxicity”. The “cytotoxicity against HUVECs” value in the data set with HUVECs is recorded as “negligible cytotoxicity”.

Consider `CC(C)C[C@H](NC(=O)[C@@H](NC(=O)[C@H](Cc1ccccc1)NC(=O)[C@H](Cc1ccccc1)NC(=O)[C@H](Cc1ccccc1)NC(=O)[C@H](CS)NC(=O)CCCCCOc1cc(C(=O)c2ccc3ccc4cccc5ccc2c3c45)cc(C(=O)c2ccc3ccc4cccc5ccc2c3c45)c1)C(C)C)C(=O)N[C@@H](CCCCN)C(=O)N[C@@H](CCCCN)C(=O)N[C@@H](CCCCN)C(=O)N[C@@H](CC(=O)O)C(=O)N[C@@H](CCC(=O)O)C(=O)N[C@H](C(=O)N[C@@H](CC(=O)O)C(=O)N[C@@H](C)C(=O)N[C@@H](CCCCN)C(=O)N[C@@H](CCCNC(=N)N)C(=O)NCC(=O)N[C@@H](C)C(=O)N[C@@H](CCCNC(=N)N)C(=O)N[C@@H](CO)C(=O)N[C@H](C(=O)N[C@@H](C)C(=O)O)[C@@H](C)O)C(C)C` [PAHN-3] (X1-CFFFVLKKKDEVDAKRGARSTA-OH), for which the “survival of 4T1 cells” value in the data set with 4T1 cells (CCK‐8) is “no evident change”.
